B1: D10 A06-hFc (S239C + S442C), mixed linkers (D10 - [G4S]1, A06 - [G4S]3) (Fc fusion)
chain 1: QVQLVESGGGLVQPGGSLRLSCAASGSIFSVNTMGWYRQAPGKQRDLVAVATSGGTIHYADSVKGRFTISRDNAKNTVYLQMNSLKPEDTAVYYCNLVVPYGMIAGDHDYWGQGTKVTVSSGGGGSEPKSSDKTHTCPPCPAPELLGGPCVFLFPPKPKDTLMISRTPEVTCVVVDVSHEDPEVKFNWYVDGVEVHNAKTKPREEQYNSTYRVVSVLTVLHQDWLNGKEYKCKVSNKALPAPIEKTISKAKGQPREPQVYTLPPSRDELTKNQVSLYCLVKGFYPSDIAVEWESNGQPENNYKTTPPVLDSDGSFFLYSKLTVDKSRWQQGNVFSCSVMHEALHNHYTQKSLCLSPGK
chain 2: QVHLVESGGGLVQAGGSLRLSCAASGRTFLSMGWFRQAPGKEREFVAAISWTGGSTGYADSVKGRFTISRESDKETMYLQMNSLKPEDTAVYYCAARGDVYYGGDDATRYKYWGQGTQVTVSSGGGGSGGGGSGGGGSEPKSSDKTHTCPPCPAPELLGGPCVFLFPPKPKDTLMISRTPEVTCVVVDVSHEDPEVKFNWYVDGVEVHNAKTKPREEQYNSTYRVVSVLTVLHQDWLNGKEYKCKVSNKALPAPIEKTISKAKGQPREPQVYTLPPSRDELTKNQVSLTCLVKGFYPSDIAVEWESNGQPENNYKTTPPVLDSDGSFFLTSKLTVDKSRWQQGNVFSCSVMHEALHNHYTQKSLCLSPGK
notes: Biparatopic heterodimer; also called #702
B2: D10 E10-hFc (S239C + S442C), mixed linkers (D10 - [G4S]1, E10 - [G4S]3) (Fc fusion)
chain 1: QVQLVESGGGLVQPGGSLRLSCAASGSIFSVNTMGWYRQAPGKQRDLVAVATSGGTIHYADSVKGRFTISRDNAKNTVYLQMNSLKPEDTAVYYCNLVVPYGMIAGDHDYWGQGTKVTVSSGGGGSEPKSSDKTHTCPPCPAPELLGGPCVFLFPPKPKDTLMISRTPEVTCVVVDVSHEDPEVKFNWYVDGVEVHNAKTKPREEQYNSTYRVVSVLTVLHQDWLNGKEYKCKVSNKALPAPIEKTISKAKGQPREPQVYTLPPSRDELTKNQVSLYCLVKGFYPSDIAVEWESNGQPENNYKTTPPVLDSDGSFFLYSKLTVDKSRWQQGNVFSCSVMHEALHNHYTQKSLCLSPGK
chain 2: QVQLVESGGGLVQAGGSLRLSCAVSGRALSDYNIGWFRQAPGKEREFVARKTWDGSSTRYDDSVKGRFTVSIEDAKNTAYLQMSSLKTEDTAVYYCAAGRYSRARGWEYDYWGQGTQVTVSSGGGGSGGGGSGGGGSEPKSSDKTHTCPPCPAPELLGGPCVFLFPPKPKDTLMISRTPEVTCVVVDVSHEDPEVKFNWYVDGVEVHNAKTKPREEQYNSTYRVVSVLTVLHQDWLNGKEYKCKVSNKALPAPIEKTISKAKGQPREPQVYTLPPSRDELTKNQVSLTCLVKGFYPSDIAVEWESNGQPENNYKTTPPVLDSDGSFFLTSKLTVDKSRWQQGNVFSCSVMHEALHNHYTQKSLCLSPGK
notes: Biparatopic heterodimer; also called #704
B3: D10 E06-hFc (S239C + S442C), mixed linkers (D10 - [G4S]1, E06 - [G4S]3) (Fc fusion)
chain 1: QVQLVESGGGLVQPGGSLRLSCAASGSIFSVNTMGWYRQAPGKQRDLVAVATSGGTIHYADSVKGRFTISRDNAKNTVYLQMNSLKPEDTAVYYCNLVVPYGMIAGDHDYWGQGTKVTVSSGGGGSEPKSSDKTHTCPPCPAPELLGGPCVFLFPPKPKDTLMISRTPEVTCVVVDVSHEDPEVKFNWYVDGVEVHNAKTKPREEQYNSTYRVVSVLTVLHQDWLNGKEYKCKVSNKALPAPIEKTISKAKGQPREPQVYTLPPSRDELTKNQVSLYCLVKGFYPSDIAVEWESNGQPENNYKTTPPVLDSDGSFFLYSKLTVDKSRWQQGNVFSCSVMHEALHNHYTQKSLCLSPGK
chain 2: QVHLVESGGGLVQAGGSLRLSCAASRRSFSEYAMGWFRQAPGKEREFVAAIGWSGVIEYADSVKGRFTISRDNAKDTVYLQMNSLKPEDTAVYYCAAGLGIRVVSQTPAYWGQGTQVTVSSGGGGSGGGGSGGGGSEPKSSDKTHTCPPCPAPELLGGPCVFLFPPKPKDTLMISRTPEVTCVVVDVSHEDPEVKFNWYVDGVEVHNAKTKPREEQYNSTYRVVSVLTVLHQDWLNGKEYKCKVSNKALPAPIEKTISKAKGQPREPQVYTLPPSRDELTKNQVSLTCLVKGFYPSDIAVEWESNGQPENNYKTTPPVLDSDGSFFLTSKLTVDKSRWQQGNVFSCSVMHEALHNHYTQKSLCLSPGK
notes: Biparatopic heterodimer; also called #703
B4: A06 E10-hFc (S239C + S442C), [G4S]1 linkers (Fc fusion)
chain 1: QVHLVESGGGLVQAGGSLRLSCAASGRTFLSMGWFRQAPGKEREFVAAISWTGGSTGYADSVKGRFTISRESDKETMYLQMNSLKPEDTAVYYCAARGDVYYGGDDATRYKYWGQGTQVTVSSGGGGSEPKSSDKTHTCPPCPAPELLGGPCVFLFPPKPKDTLMISRTPEVTCVVVDVSHEDPEVKFNWYVDGVEVHNAKTKPREEQYNSTYRVVSVLTVLHQDWLNGKEYKCKVSNKALPAPIEKTISKAKGQPREPQVYTLPPSRDELTKNQVSLYCLVKGFYPSDIAVEWESNGQPENNYKTTPPVLDSDGSFFLYSKLTVDKSRWQQGNVFSCSVMHEALHNHYTQKSLCLSPGK
chain 2: QVQLVESGGGLVQAGGSLRLSCAVSGRALSDYNIGWFRQAPGKEREFVARKTWDGSSTRYDDSVKGRFTVSIEDAKNTAYLQMSSLKTEDTAVYYCAAGRYSRARGWEYDYWGQGTQVTVSSGGGGSEPKSSDKTHTCPPCPAPELLGGPCVFLFPPKPKDTLMISRTPEVTCVVVDVSHEDPEVKFNWYVDGVEVHNAKTKPREEQYNSTYRVVSVLTVLHQDWLNGKEYKCKVSNKALPAPIEKTISKAKGQPREPQVYTLPPSRDELTKNQVSLTCLVKGFYPSDIAVEWESNGQPENNYKTTPPVLDSDGSFFLTSKLTVDKSRWQQGNVFSCSVMHEALHNHYTQKSLCLSPGK
notes: Biparatopic heterodimer
B5: A06 F05-hFc (S239C + S442C), [G4S]1 linkers (Fc fusion)
chain 1: QVHLVESGGGLVQAGGSLRLSCAASGRTFLSMGWFRQAPGKEREFVAAISWTGGSTGYADSVKGRFTISRESDKETMYLQMNSLKPEDTAVYYCAARGDVYYGGDDATRYKYWGQGTQVTVSSGGGGSEPKSSDKTHTCPPCPAPELLGGPCVFLFPPKPKDTLMISRTPEVTCVVVDVSHEDPEVKFNWYVDGVEVHNAKTKPREEQYNSTYRVVSVLTVLHQDWLNGKEYKCKVSNKALPAPIEKTISKAKGQPREPQVYTLPPSRDELTKNQVSLYCLVKGFYPSDIAVEWESNGQPENNYKTTPPVLDSDGSFFLYSKLTVDKSRWQQGNVFSCSVMHEALHNHYTQKSLCLSPGK
chain 2: QVQLVESGGGLVQAGGSLRLSCAASGRAFGDYNIGWFRQAPGKEREFVARRTWDGSSTRYDDSVKGRFTVSIDNAKNTAYLQMNSLKTEDTAVYYCAAGRYSRVRGWEYDYWGQGTQVTVSSGGGGSEPKSSDKTHTCPPCPAPELLGGPCVFLFPPKPKDTLMISRTPEVTCVVVDVSHEDPEVKFNWYVDGVEVHNAKTKPREEQYNSTYRVVSVLTVLHQDWLNGKEYKCKVSNKALPAPIEKTISKAKGQPREPQVYTLPPSRDELTKNQVSLTCLVKGFYPSDIAVEWESNGQPENNYKTTPPVLDSDGSFFLTSKLTVDKSRWQQGNVFSCSVMHEALHNHYTQKSLCLSPGK

The target in the assay is T1, Human ALPP (leucine zipper) (human).
T1 construct: Soluble human ALPP fused to a disulphide stabilised leucine zipper and a His tag; The whole entry is the construct; also called hALPP; PLAP
T1 chain: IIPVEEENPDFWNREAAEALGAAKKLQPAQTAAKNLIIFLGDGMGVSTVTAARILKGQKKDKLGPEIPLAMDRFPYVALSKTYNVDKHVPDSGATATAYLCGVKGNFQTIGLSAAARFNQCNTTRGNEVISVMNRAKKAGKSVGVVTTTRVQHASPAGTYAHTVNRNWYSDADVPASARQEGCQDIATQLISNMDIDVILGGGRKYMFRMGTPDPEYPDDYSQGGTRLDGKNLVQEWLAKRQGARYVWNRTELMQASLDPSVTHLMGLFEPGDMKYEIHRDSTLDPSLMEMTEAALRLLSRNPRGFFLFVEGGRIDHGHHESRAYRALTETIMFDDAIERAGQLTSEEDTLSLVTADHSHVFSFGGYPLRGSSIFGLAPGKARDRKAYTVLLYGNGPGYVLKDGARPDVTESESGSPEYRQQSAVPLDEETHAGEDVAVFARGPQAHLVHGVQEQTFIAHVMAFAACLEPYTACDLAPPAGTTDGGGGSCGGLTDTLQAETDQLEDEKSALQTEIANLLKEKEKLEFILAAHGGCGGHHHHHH
Nature of the assay: BLI, KD app (antigen immobilised on AR2G sensor). Here is the method: Binding kinetics were determined using the Biolayer Interferometry (BLI) Octet K2 or R4 system (Sartorius). […] For KD apparent measurements, the ALPP proteins were immobilised in sodium acetate pH5 buffer to AR2G sensors using amine coupling. To measure 1:1 interactions, AHC biosensors were used to immobilise Fc-fused proteins. All assays were conducted in HBS-EP with a plate temperature of 25° C. Ka (M⁻¹s⁻¹), Kd (s⁻¹) and KD (nM) values were determined using Octet Data Analysis High Throughput software (Sartorius) for Biolayer Interferometry.
In turn, B1 gave a Kd of less than 0.01 nM and a kon of 343000 M⁻¹ s⁻¹.
Molecule B2 showed a Kd of less than 0.01 nM and a kon of 385000 M⁻¹ s⁻¹.
As for B3, the Kd is 0.11 nM and the kon amounted to 465000 M⁻¹ s⁻¹.
The molecule B4 returned a kon of 516000 M⁻¹ s⁻¹.
On to B5, for which the kon was determined as 422000 M⁻¹ s⁻¹.

Source of the values: patent publication US20260216242A1 (ALMAC DISCOVERY, published 2026).
